This passage reports Kd, koff and kon results from patent US20250163137A1 (UNI PHARMA, published 2025).

In assay [1] the target is T1, canine FDP (fibrin-fibrinogen degradation products) (canine).
T1 construct: A heterogeneous mixture
Nature of the assay: affinity test (RU read-out; instrument not named).

The target in assay [2] is T1, canine FDP (fibrin-fibrinogen …). Nature of the assay: kinetic analysis, 1:1 binding fit (RU read-out; instrument not named).

T1 sequence (Q9NRC9 whole entry): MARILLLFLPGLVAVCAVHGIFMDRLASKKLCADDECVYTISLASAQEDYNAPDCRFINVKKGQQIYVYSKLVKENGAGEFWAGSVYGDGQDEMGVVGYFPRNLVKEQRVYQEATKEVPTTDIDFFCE

B1: mAb 14G12-5 (antibody, V domains shown)
VH: EVQLVESGGGLVKPGGSLKLSCAASGFAFNAYDMSWVRQTPEKRLEWVAYISSSGDYTYYPDTVKGRFTVSRDNAKSTLYLHMGSLKSEDTAMYYCAVYYHYDEGLDYWGQGTALTVSS
VL: QIVLIQSPAIMSASPGEKVTMTCSASSSVNYMHWYQQKSGTSPKRWIYDTSKLASGVPARFSGSGSGTSYSLTISSMEAEDAATYYCQQWSSNPPTFGGGTKLEIKR
notes: also called 14G12-5 mAb; recombinant antibody 14G12-5
As to B1, the Kd in assay [1] was found to be 5.03 µM. In assay [2], the Kd worked out at 0.0552 µM, the koff amounted to 0.0026 s⁻¹ and the kon came out at 47100 M⁻¹ s⁻¹.

What is called Kd is the equilibrium constant for the complex coming apart. The term koff denotes the first-order rate constant of dissociation. Broadly, the kon is a measure of how fast the partners come together.
